According to patent US20220144922A1 (Adimab, published 2022):
Positions count from the first letter of the chain named.

B1: ADI-15594 (antibody, V domains shown)
VH: EVQLVESGGHLVQPGGSLRLSCAASGFTFSSYSMNWVRQAPGKGLEWISYISSSSSTMYYADSVKGRFTMSRDNAKNSLYLQMNSLRDEDTALYYCARDFPPINLAATTRNYYYYVMDVWGQGTTVTVSS
VL: DIQLTQSPSSLSASVGDRVTITCRASQSISSYLNWYQQKPGKAPNLLIYATSNLKSGVPSRFSGSGSGTDFTLTISSLQPEDFATYYCQQSYSTSYTFGQGTKVDIK
notes: IgG
B2: ADI-15587 (antibody, V domains shown)
VH: EVQLVESGGGVVRPGGSLRLSCAASGFKFDDYGMSWVRQAPGKGLEWVSAIIWNSGSTGYADSVKGRFIISRDNAKNSLYLQMNSLRAEDTALYYCARVGGITKWWYYGMDLWGQGTTVTVSS
VL: ETTLTQSPSFLSASVGDRVTITCRASQGLSNYLAWYQQKPGRAPKLLIYAASTLQSGVPSRFRGSGSGTEFTLTISSLQPEDLATYYCQHLNSYPLTFGGGTKVEIK
notes: IgG
B3: ADI-15592 (antibody, V domains shown)
VH: EVQLVESGGALVKPGGSLRLSCVGTGLTFTTAYMSWARQAPGKGLEWVGRIKSKSDGGTTEYPTPVKGRFTISRDESKNTLYLQMNSLKIEDTAVYYCTTDRGITARPIFDSWGQGTLVTVSS
VL: QSVLTQPPSVSGALGRRVTISCTGSSSNIGAGYDVHWYRQLPGTAPKLLIYGNTKRPSGVPDRFSGSKYATSASLAITGLQAEDDADYYCQSYDGGLSGYVFGTGTQLTVL
notes: IgG; also called Antibody Number 159
B4: ADI-15596 (antibody, V domains shown)
VH: B3 VH with K52L, E61D
VL: B3 VL with E83D, Q107K, L108V
notes: IgG
B5: ADI-15609 (antibody, V domains shown)
VH: EVQLLESGGGVVQPGRSLKLSCAASGFSFTTDVMHWIRQAPGKGLEWVAVISTDGANSYYAESVKGRFTISRDNSKNTLFLQMSSLRAEDTAVYYCASQGYHYVNMADVGVPSFDHWGQGTLVTVSS
VL: ETTLTQSPSSLSASVGDRVTITCRARRSIDNYLNWYQHKPGTAPKLLIYAVSSLPSGVPSRFSGSGSGADFTLTISSLQPEDLATYYCQQSYMTPPTFGQGTKLEIK
notes: IgG
B6: ADI-15586 (antibody, V domains shown)
VH: EVQLVESGGGVVQPGKSLRLSCAASGFIFSGYGMHWVRQAPGKGLEWVAFIWFDGSSTYYADSVKGRFTISKDDSKQTVYLQMNRLRAEDTAVYYCARDPLFLYNYNDEPFDYWGQGTLVTVSS
VL: SYELTQPPSASGSPGQSVTISCSGSSSNIGGNFVYWYQQLPGTAPKVLIYRNNQRPSGVPDRFSGSKSGTSASLAISGLRSDDEADYYCSVWDDSLNGRLFGGGTKLTVL
notes: IgG; also called Antibody Number 153
B7: ADI-15565 (antibody, V domains shown)
VH: QVQLVQSGAEVKKPGASVKVSCKASGYTFTNDINWVRQATGQGLEWMGWMNPNNGHTGYAQSFEGRVSMTRNSAINTAYLELSSLRFDDTAIYYCVYNFWSDSSVSWGQGTLVTVSS
VL: QSVVTQPPSVSGAPGQSVAISCTGSSSNIGPGYDVHWYQQLPGAAPKLLIYGDSNRPSGVPDRFSTSKSGTSVSLAITGLQAEDEADYYCQSYDSSLRGYVFGTGTKLTVL
notes: IgG
B8: ADI-15591 (antibody, V domains shown)
VH: EVQLLESGGGLVKPGGSLRLSCAASGFTFSSYGMHWVRQAPGKGLEWVSSITAGSSYMDYADSVKGRFTVSRDNGKNSLYLQMNSLRAEDTAVYFCAREDYDSRVYYLKWFDPWGQGTLVTVSS
VL: B7 VL with V4L, S17R, A19T, P31T, A44S, D53N, T66G, V73A, L97R, R98S
notes: IgG
B9: ADI-15575 (antibody, V domains shown)
VH: QVQLVQSGAEVKKPGASLMVSCSASGYIFNSDINWVRQAPGQGLEWMGWMNPKNGHTGYAQEFEGRVSMTRNSSKTIAYLQLSSLTYEDTAVYYCVYDFWSDDSVKWGRGTLVTVSS
VL: B7 VL with T23S, A44S, S54N, D62E, V73A, Y93F, L108V
notes: IgG
B10: ADI-15566 (antibody, V domains shown)
VH: QVQLVQSGAEVKKPGASVKVSCKASGFTFTNYGISWVRQAPGRGLEWMGWISAYNGNTEYAQKLQDRLTMTTDTSTNTAYMELRSLRSDDTALYYCARESGVAAAATLLYWGQGTLVTVSS
VL: ETTLTQSPLSLPVTLGQPASISCRSSQSLVYSDGNTYLSWFQQRPGQSPRRLIYKVSNRDSGVPDRFSGSGSGADFTLKISRVEAEDVGVYYCMQGIYWPRTFGQGTKVDIK
notes: IgG
B11: ADI-15568 (antibody, V domains shown)
VH: QVQLVESGAEVQKPGASVKISCKASGYKFISYSIHWVRQAPGQGLEWMGVINPGGGLTNYAQKFQDRLTMTRDTSTATVTMELRSLRSDDRAVYFCGREDSYCSGDSCFNSGSGRWVDSWGQGTLVTVSS
VL: DIQVTQSPSSLSASVGDRVTITCRASQSVITYLNWYQQKPGKAPQLLVYAASILQSGVPSSFSGSGSGTDFTLTISSLQPEDFATYYCQQTYSTPHTFGQGTKVDIK
notes: IgG
B12: ADI-15571 (antibody, V domains shown)
VH: QVQLVQSGAEVKKPGASVKVSCKASGYSFTDYYIHWVRQAPGQGLEWIGWINPNSGGTTFAQNFQGRVTMTRDTSISTAFLELSRLKSDDTAVYYCARDVLWLNGFWGLGTLVTVSS
VL: QSVVTQPPSVSAAPGQKVTISCSGSSSNIGNNYVSWYQQFRGTAPKVLIYENNKRTSGIPDRFSGSKSGTSATLGITGLQTGDEADYYCGTWDSSLSTGPYVVFGGGTKLTVL
notes: IgG
B13: ADI-15610 (antibody, V domains shown)
VH: EVQLLESGAEVKKPGSSVKVSCKASGGTFSSYAITWVRQAPGQGLEWMGGIIPILGTTTYAQRFQGRVTITADKSTTTAYMELSRLRSEDTAVYYCAKTVSQYPNTYNYGMDVWGQGTTVTVSS
VL: EIVMTQSPSSLSASVGDRVTITCRASQSVSIYLNWYQQKPGKTPELLIYGASRLQSGVPSRFSGSGSGTDFTLTISSLQPEDFATYYCLQTYSTPLTFGQGTKVEIK
notes: IgG; also called Antibody Number 175
B14: ADI-15617 (antibody, V domains shown)
VH: EVQLVESGGGLVQPGGSLRISCAASGFSISSHAVSWVRQAPGKGLEWVSVISGSGGDTHSVVQGRGSGTYYADSVKGRFTISRDNVRNTVYLQMNSLRVEDTAVYYCAKDDPTLFWSGSGYYGMDVWGQGTTVTVSS
VL: DIRVTQSPSSLSASVGDRVTITCQASQGISDSLNWYQQKPGKAPKLLIYGASKLEPGVSSRFSGRGSGRDFTFTISSLQPEDIGTYYCQQYDNLPLTFGPGTKLEIK
notes: IgG; also called Antibody Number 182
B15: ADI-15602 (antibody, V domains shown)
VH: EVQLLESGGGVVQPGKSLRLSCVASGFTFGDYGMHWVRQAPGKGLEWVAVISDGGSTKYYADSVKGRFTIARDNSKNTLNLQMNSLRAEDTAVYYCAKDLAWIFGLGASYMDVWGQGTLVTVSS
VL: DIQLTQSPGTLSLSPGERATLSCRASQTVSSSYLAWYQQKPGQAPRLLIYDASSRATGIPDRFSGSGSGTDFTLTISRLEPEDFAVYYCQQYGSSPFGLTFGGGTKVEIK
notes: IgG
B16: ADI-15662 (antibody, V domains shown)
VH: QVQLQESGPGLVKPSETLSLTCTVSGGSVSRGSYYWTWIRQPPGKGLEWIGYIYYSGSTNYNPSLKSRVTISVDTSKNQFSLKLSSVTAADTAVYYCARDIGEDKYGTYYGMDVWGQGTTVTVSS
VL: EIVMTQSPATLSLSPGERATLSCRASQSVSSSLAWYQQKPGQAPRLLIYGASNRATGIPARFSGSGSGTDFTLTISSLEPEDFAVYYCQQRTNWPPVTFGPGTKVEIK
notes: IgG
B17: ADI-15569 (antibody, V domains shown)
VH: EVQLVESGAEVKKPGASVKVSCKASGYTFANYGITWVRQAPGQGLEYMGWISAYNGNTNYAQKFQGRVTMTTDTSTSTAYMELRSLRSDDTAIYYCARDPGVTAAVLLDYWGQGALVTVSS
VL: DIVLTQSPLSLPVTLGQPASISCRSSQSLVFSDGNTYLSWFQQRPGQSPRRLLYKVSNRDSGVPDRFSGSGSGTDFTLTISRVEAEDVGVYYCLQGTPPYTFGQGTKVDIK
notes: IgG

The binders below were run against RSV F protein of subtype B strain 18537, on virus (respiratory syncytial virus subtype B …, UniProt P13843 26-574) (assay: cell-based or functional assay).
For B1, the “Neut IC50 (ug/ml) subtype B” value was 3.28 µg/mL.
B2 was tested, and the “Neut IC50 (ug/ml) subtype B” value was 0.13 µg/mL.
With B3 the “Neut IC50 (ug/ml) subtype B” value was 20.9 µg/mL.
For B4, the “Neut IC50 (ug/ml) subtype B” value was > 10 µg/mL.
B5 was tested, and the “Neut IC50 (ug/ml) subtype B” value was > 10 µg/mL.
B6 was tested, and the “Neut IC50 (ug/ml) subtype B” value was 1.02 µg/mL.
In the case of B7, the “Neut IC50 (ug/ml) subtype B” value is reported as 6.25 µg/mL.
For B8, the “Neut IC50 (ug/ml) subtype B” value was 0.219 µg/mL.
With B9 the “Neut IC50 (ug/ml) subtype B” value was 1.47 µg/mL.
B10 was tested, and the “Neut IC50 (ug/ml) subtype B” value was 0.043 µg/mL.
With B11 the “Neut IC50 (ug/ml) subtype B” value was 0.033 µg/mL.
In the case of B12, the “Neut IC50 (ug/ml) subtype B” value is reported as 0.43 µg/mL.
B13 was tested, and the “Neut IC50 (ug/ml) subtype B” value was > 10 µg/mL.
For B14, the “Neut IC50 (ug/ml) subtype B” value was 0.038 µg/mL.
For B15, the “Neut IC50 (ug/ml) subtype B” value was 0.015 µg/mL.
B16 was tested, and the “Neut IC50 (ug/ml) subtype B” value was > 10 µg/mL.
In the case of B17, the “Neut IC50 (ug/ml) subtype B” value is reported as 0.035 µg/mL.

What follows are binders tested against RSV F protein of subtype A strain A2, on virus (respiratory syncytial virus subtype A …, UniProt P03420 26-574) (assay: cell-based or functional assay).
With B1 the “Neut IC50 (ug/ml) subtype A” value was 3.25 µg/mL.
B2 was tested, and the “Neut IC50 (ug/ml) subtype A” value was > 10 µg/mL.
B3 was tested, and the “Neut IC50 (ug/ml) subtype A” value was 12.3 µg/mL.
B4 was tested, and the “Neut IC50 (ug/ml) subtype A” value was 4.48 µg/mL.
In the case of B5, the “Neut IC50 (ug/ml) subtype A” value is reported as 0.022 µg/mL.
With B6 the “Neut IC50 (ug/ml) subtype A” value was > 10 µg/mL.
With B7 the “Neut IC50 (ug/ml) subtype A” value was 21.3 µg/mL.
B8 was tested, and the “Neut IC50 (ug/ml) subtype A” value was 0.086 µg/mL.
With B9 the “Neut IC50 (ug/ml) subtype A” value was > 10 µg/mL.
For B10, the “Neut IC50 (ug/ml) subtype A” value was 0.01 µg/mL.
For B11, the “Neut IC50 (ug/ml) subtype A” value was 0.016 µg/mL.
With B12 the “Neut IC50 (ug/ml) subtype A” value was 0.541 µg/mL.
For B13, the “Neut IC50 (ug/ml) subtype A” value was 0.727 µg/mL.
In the case of B14, the “Neut IC50 (ug/ml) subtype A” value is reported as 0.022 µg/mL.
For B15, the “Neut IC50 (ug/ml) subtype A” value was 0.046 µg/mL.
For B16, the “Neut IC50 (ug/ml) subtype A” value was 6.25 µg/mL.
B17 was tested, and the “Neut IC50 (ug/ml) subtype A” value was 0.006 µg/mL.

These binders were tested against T1, postfusion RSV F ectodomain (F ΔFP), subtype A (respiratory syncytial virus subtype A, UniProt P03420 26-109; P03420 147-524) (assay: BLI, IgG on sensor).
T1 construct: extracellular domain; also called Postfusion subtype A
Procedure: (§1) IgG binding to DS-Cav1 and FA FP was determined by BLI measurements using a FortéBio Octet HTX instrument (Pall Life Sciences). […] Data was analyzed using the ForteBio Data Analysis Software 7. The data was fit to a 1:1 binding model to calculate an association and dissociation rate, and KD was calculated using the ratio kd/kₐ.
B13 gave a Kd of 417 pM.
B14: no binding (tested: BLI response <0.05 nm).
B16 gave a Kd of 3090 pM.

The binders below were run against T2, prefusion-stabilized RSV F ectodomain (DS-Cav1), subtype B (respiratory syncytial virus subtype B) (assay: BLI, IgG on sensor).
T2 construct: extracellular domain; also called Prefusion subtype B
Procedure: as §1
Binder B1 has a Kd of 549 pM.
Work on B2 yielded a Kd of 2420 pM.
B3 showed a Kd of 48200 pM.
In the case of B4, the Kd is reported as 47600 pM.
In the case of B5, the Kd is reported as 628 pM.
B6 showed a Kd of 5780 pM.
B7 showed a Kd of 6760 pM.
With B8 the Kd was 304 pM.
Binder B9 has a Kd of 4160 pM.
In the case of B10, the Kd is reported as 264 pM.
B11 showed a Kd of 699 pM.
B12 gave a Kd of 25700 pM.
For B14, the Kd was 710 pM.
Binder B15 has a Kd of 807 pM.
For B17, the Kd was 250 pM.
